T1: SSB (UniProt P05455 1-408)
T1 sequence: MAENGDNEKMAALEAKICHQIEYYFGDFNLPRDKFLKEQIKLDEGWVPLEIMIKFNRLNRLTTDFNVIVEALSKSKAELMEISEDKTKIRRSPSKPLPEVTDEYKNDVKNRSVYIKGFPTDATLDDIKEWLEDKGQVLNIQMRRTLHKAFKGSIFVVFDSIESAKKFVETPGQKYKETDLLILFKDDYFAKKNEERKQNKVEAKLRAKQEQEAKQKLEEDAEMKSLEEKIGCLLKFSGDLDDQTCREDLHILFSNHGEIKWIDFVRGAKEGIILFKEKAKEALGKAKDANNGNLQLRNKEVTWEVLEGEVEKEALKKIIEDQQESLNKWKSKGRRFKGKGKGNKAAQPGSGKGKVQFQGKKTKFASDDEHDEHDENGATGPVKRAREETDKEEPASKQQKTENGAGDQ

T2: Jo-1 (UniProt P12081 1-509)
T2 sequence: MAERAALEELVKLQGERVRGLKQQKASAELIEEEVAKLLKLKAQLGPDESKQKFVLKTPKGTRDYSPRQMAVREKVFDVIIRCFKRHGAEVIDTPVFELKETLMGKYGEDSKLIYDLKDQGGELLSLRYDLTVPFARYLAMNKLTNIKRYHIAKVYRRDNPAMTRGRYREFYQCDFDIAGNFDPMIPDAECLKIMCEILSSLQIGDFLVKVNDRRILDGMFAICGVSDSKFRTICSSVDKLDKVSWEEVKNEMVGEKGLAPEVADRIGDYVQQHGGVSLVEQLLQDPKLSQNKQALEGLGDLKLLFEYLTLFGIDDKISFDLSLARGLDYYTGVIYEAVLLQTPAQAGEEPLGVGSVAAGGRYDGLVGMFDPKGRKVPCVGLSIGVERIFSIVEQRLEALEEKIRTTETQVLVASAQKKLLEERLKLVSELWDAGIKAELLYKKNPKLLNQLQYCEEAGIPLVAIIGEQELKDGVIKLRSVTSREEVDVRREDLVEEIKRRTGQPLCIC

T3: Scl-70 (UniProt P11387 1-765)
T3 sequence: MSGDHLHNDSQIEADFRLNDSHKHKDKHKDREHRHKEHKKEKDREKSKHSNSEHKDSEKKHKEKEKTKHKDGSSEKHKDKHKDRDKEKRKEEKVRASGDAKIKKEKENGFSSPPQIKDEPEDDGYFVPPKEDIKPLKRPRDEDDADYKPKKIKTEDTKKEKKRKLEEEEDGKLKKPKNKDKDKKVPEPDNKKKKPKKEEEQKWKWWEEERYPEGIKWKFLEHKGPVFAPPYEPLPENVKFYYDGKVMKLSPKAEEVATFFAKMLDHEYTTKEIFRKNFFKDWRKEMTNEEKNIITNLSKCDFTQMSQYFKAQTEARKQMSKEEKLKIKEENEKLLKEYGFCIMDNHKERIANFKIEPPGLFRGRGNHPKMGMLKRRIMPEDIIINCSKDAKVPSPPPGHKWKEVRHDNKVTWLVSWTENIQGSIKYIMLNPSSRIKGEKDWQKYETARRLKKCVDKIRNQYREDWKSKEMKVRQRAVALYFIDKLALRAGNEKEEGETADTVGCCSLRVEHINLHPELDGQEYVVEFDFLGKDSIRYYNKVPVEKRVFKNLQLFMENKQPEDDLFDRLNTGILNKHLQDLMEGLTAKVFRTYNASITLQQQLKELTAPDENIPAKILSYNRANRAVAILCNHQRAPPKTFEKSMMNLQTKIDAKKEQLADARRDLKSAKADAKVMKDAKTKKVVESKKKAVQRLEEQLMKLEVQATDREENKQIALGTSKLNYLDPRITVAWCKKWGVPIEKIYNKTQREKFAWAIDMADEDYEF


Experiments:
CH505.TF mutant gp120 M8 = target: T4, CH505.TF mutant gp120 M8 (HIV-1); test: direct-binding ELISA (OD450), panel 'CH505.TF gp120 M8'
T4 construct: domain: gp120

[1] = target: CH505 TF loop D mutant M8 Env (pseudovirus) (HIV-1); test: cell-based or functional assay
Sm (Smith antigen) [2] = target: T5, Sm (Smith antigen); test: AtheNA, Ab 50 ug/ml
T5 construct: Protein complex

[3] = target: T6, HIV-1 CH505 transmitted/founder gp120 Env (HIV-1); test: competition ELISA, blocking of sCD4 binding to gp120
T6 construct: domain: gp120; also called CH505.TF gp120; CH505 TF gp120 Env

[4] = target: T6, HIV-1 CH505 transmitted/founder gp120 …; test: competition ELISA, blocking of CH106 binding to gp120
SSB [5] = target: T1, SSB; test: AtheNA, Ab 25 ug/ml
Jo-1 [6] = target: T2, Jo-1; test: AtheNA, Ab 25 ug/ml
RNP (ribonucleoprotein) [7] = target: T7, RNP (ribonucleoprotein); test: AtheNA, Ab 25 ug/ml
T7 construct: Protein-RNA complex

Sm (Smith antigen) [8] = target: T5, Sm (Smith antigen); test: AtheNA, Ab 25 ug/ml
Scl-70 [9] = target: T3, Scl-70; test: AtheNA, Ab 25 ug/ml
SSA [10] = target: T8, SSA; test: AtheNA, Ab 25 ug/ml
T8 construct: also called SSA (Ro)

Histones [11] = target: T9, Histones; test: AtheNA, Ab 25 ug/ml
T9 construct: Mixture of proteins

SSB [12] = target: T1, SSB; test: AtheNA, Ab 12.5 ug/ml
Scl-70 [13] = target: T3, Scl-70; test: AtheNA, Ab 12.5 ug/ml
Histones [14] = target: T9, Histones; test: AtheNA, Ab 12.5 ug/ml
SSB [15] = target: T1, SSB; test: AtheNA, Ab 6.25 ug/ml
Jo-1 [16] = target: T2, Jo-1; test: AtheNA, Ab 6.25 ug/ml
RNP (ribonucleoprotein) [17] = target: T7, RNP (ribonucleoprotein); test: AtheNA, Ab 6.25 ug/ml
Sm (Smith antigen) [18] = target: T5, Sm (Smith antigen); test: AtheNA, Ab 6.25 ug/ml
Scl-70 [19] = target: T3, Scl-70; test: AtheNA, Ab 6.25 ug/ml
SSA [20] = target: T8, SSA; test: AtheNA, Ab 6.25 ug/ml
Histones [21] = target: T9, Histones; test: AtheNA, Ab 6.25 ug/ml

Binder	IC50 [3] [µg/mL]	IC50 [4] [µg/mL]	AtheNA signal (SSB [5])	AtheNA signal (Jo-1 [6])	AtheNA signal (RNP (ribonucleoprotein) [7])	AtheNA signal (Sm (Smith antigen) [8])	AtheNA signal (Scl-70 [9])	AtheNA signal (SSA [10])	AtheNA signal (Histones [11])	AtheNA signal (SSB [12])	AtheNA signal (Scl-70 [13])	AtheNA signal (Histones [14])	AtheNA signal (SSB [15])	AtheNA signal (Jo-1 [16])	AtheNA signal (RNP (ribonucleoprotein) [17])	AtheNA signal (Sm (Smith antigen) [18])	AtheNA signal (Scl-70 [19])	AtheNA signal (SSA [20])	AtheNA signal (Histones [21])	other results
CH493 (antibody, V domains shown, also called CH235.9; DH493) VH: QVRLLQYGGGVKRPGASMTISCVASGYNFNDYYIHWVRQAPGQGLELMGWIDPSGGRTDYAGAFGDRVSMYRDKSMNTLYMDLRSLRSGDTAMYYCVRNVGTAGSLLHYDHWGLGVMVTVSS VL: EIVLTQSPATLSVSPGERVTLSCRASQSVRNNLAWYRQKRGQAPRLLIYGASTRATGIPARFSGSGSGTEFTLTISSMQSEDFAVYYCQQYNNWWTFGQGTKVEIK																				EC50 (read off the curve) (CH505.TF mutant gp120 M8): ~2 µg/mL; neutralization IC50, TZM-bl pseudovirus assay [1]: 0.66 µg/mL
CH557 (antibody, V domains shown, also called CH235.12; CH557_4A/293i) VH: QVRLAQYGGGVKRLGATMTLSCVASGYTFNDYYIHWVRQAPGQGFELLGYIDPANGRPDYAGALRERLSFYRDKSMETLYMDLRSLRYDDTAMYYCVRNVGTAGSLLHYDHWGSGSPVIVSS VL: EIVLTQSPATLSASPGERVTLTCRASRSVRNNVAWYQHKGGQSPRLLIYDASTRAAGVPARFSGSASGTEFTLAISNLESEDFTVYFCLQYNNWWTFGQGTRVDIK																				AtheNA signal (Sm (Smith antigen) [2]): 8 relative luminescence units
CH235 (antibody, V domains shown, also called CH235_4A) VH: QVQLVQSGAEVKKPGASVTVSCQASGYTFTNYYVHWVRQAPGQGLQLMGWIDPSWGRTNYAQNFQGRITMTRDTSTSTVYMEMRSLRSEDTAVYYCARNVATEGSLLHYDYWGQGTLVTVSA VL: EIVLTQSPATLSVSPGERATLSCRASQSVRSNLAWYQQRPGQAPRLLIYGTSTRATGVPARFSGRGSGTEFTLAISSMQSEDFAVYLCLQYNNWWTFGQGTKVEIK	26.3	16.5	5 relative luminescence units	4 relative luminescence units	5 relative luminescence units	7 relative luminescence units	4 relative luminescence units	13 relative luminescence units	7 relative luminescence units	5 relative luminescence units	2 relative luminescence units	5 relative luminescence units	6 relative luminescence units	2 relative luminescence units	3 relative luminescence units	5 relative luminescence units	2 relative luminescence units	12 relative luminescence units	5 relative luminescence units	
CH241 (antibody, V domains shown) VH: QVQLVQSGAAVKKPGASVRVSCKASGYTFTSSHIHWVRQAPGQGPEWMGMIDPSVGRPTTAGKFQGRVTMTRDRYTSTAYMDLSSLRSEDTAVYYCARSVETTGSLLYFDYWGQGTLITVSS VL: EIVLTQSPATLSVSPGERATLSCRASQSVRSNIAWYQQKPGQAPRLLIHGASTRATGIPGRFSGSGSGPEFTLAISSVQSEDFAVYYCQQYNDWWTFGQGTKVEIK	2.6	1.5	6 relative luminescence units	5 relative luminescence units	6 relative luminescence units	11 relative luminescence units	4 relative luminescence units	15 relative luminescence units	20 relative luminescence units	8 relative luminescence units	3 relative luminescence units	13 relative luminescence units	4 relative luminescence units	2 relative luminescence units	3 relative luminescence units	4 relative luminescence units	1 relative luminescence units	15 relative luminescence units	9 relative luminescence units	
